From PMC3167817

Key:
[1] = target: EGFR on A549 cells (endogenous) (human) (UniProt P00533); assay: cell binding, radiolabeled aptamer; conditions: A549 cells; binding decreased by EGFR shRNA and 1 uM EGF; 2'-fluoro pyrimidines; Filter binding: 1 nM radiolabeled RNA, PBS + 0.01% BSA, 15 min, 37 C (5 mM DTT for monomer); CL4sc background subtracted; pull-down: 200 nM aptamer on A549 …
[2] = target: EGFR on NIH/EGFR cells (human) (UniProt P00533); assay: cell binding, radiolabeled aptamer; conditions: apparent Kd; parental NIH3T3 not bound; 2'-fluoro pyrimidines; Filter binding: 1 nM radiolabeled RNA, PBS + 0.01% BSA, 15 min, 37 C (5 mM DTT for monomer); CL4sc background subtracted; pull-down: 200 nM aptamer on A549 …

GCCUUAGUAACGUGCUUUGAUGUCGAUUCGACAGGAGGC [CL4]
Kd [1]: 38 nM
Kd [2]: 60 nM
